The results in this text go back to patent US20030162258A1, “Inhibitors of G protein-mediated signaling, methods of making them, and uses thereof” (Northwestern University, priority 2000, published 2003).

The target in test [1] is thrombin receptor, PAR-1, in human microvascular endothelial cells (HMEC) (human) (UniProt P25116). In words: cell-based or functional assay.
The subject of another test is PAR-1 gene promotor. In words: Thrombin-stimulated PAR-1 gene induction, luciferase reporter assay in HMEC. Type of test: cell-based, human. Particulars: 10 nanomolar thrombin, four hours, pertussis toxin 100 nanograms per milliliter pretreatment. From the text:
Thrombin treatment of cells induces the expression of the gene encoding its GPCR, PAR-1. This induction is mediated through the PAR-1 gene promotor sequence. The PAR-1 gene promotor sequence can be made to direct the expression of a reporter gene such as, the luciferase gene, thereby providing a means of observing the level of PAR-1 gene induction occurring in response to thrombin treatment of cells.
A PAR-1 promoter sequence comprising 1.82 kilobases was inserted upstream of the gene, Firefly (Photinus pyralis) luciferase in a pGL2 vector DNA to generate the plasmid DNA, PCR-1/Luc. The sea pansy (Renilla reniformis) luciferase gene operably linked to the Herpes Simplex Virus-Thymidine Kinase promoter (TK) in a pRL vector DNA (TK/pRL) served as an internal control to correct for experimental variation. HMEC were co-transfected with 100 nanograms each of a reporter DNA, PCR-1/Luc or TK/pRL, and one of pcDNA3.1, pcDNA-Gαi, or pcDNA-GαiR using protocols and reagents described in the previous Example. Twenty four hours post-transfection, HMEC were incubated in serum-free culture media (Dulbecco's Modified Eagles Medium, DMEM) for 2 hr at 37° C., following which, thrombin was added to the culture media at a concentration of 10 nanomolar. The cells were then incubated at 37° C. for four hours and lysed. […]

Sequence of UniProt P25116 (P25116 42-425): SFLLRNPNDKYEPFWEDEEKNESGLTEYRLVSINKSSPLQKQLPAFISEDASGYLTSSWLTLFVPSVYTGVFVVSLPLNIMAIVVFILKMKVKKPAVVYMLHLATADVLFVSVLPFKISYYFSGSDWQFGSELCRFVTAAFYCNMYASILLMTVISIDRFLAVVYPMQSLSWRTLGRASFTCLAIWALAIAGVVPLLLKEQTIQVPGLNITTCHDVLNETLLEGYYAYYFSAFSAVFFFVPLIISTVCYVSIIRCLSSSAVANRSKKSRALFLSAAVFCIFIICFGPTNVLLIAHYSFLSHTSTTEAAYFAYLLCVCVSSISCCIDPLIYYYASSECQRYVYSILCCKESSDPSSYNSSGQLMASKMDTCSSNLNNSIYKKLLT

For “Gαs carboxy terminal peptide encoded by minigene pcDNA-Gαs (from UniProt P63092 384-394)”, the decrease in transendothelial electrical resistance (TEER) following thrombin stimulation, HMEC in test [1] stood at 23%.
Turning to Pertussis toxin, the “level of luciferase activity after thrombin treatment (PAR-1 gene induction)” value with PAR-1 gene promotor is reported as “blocked the increase in luciferase levels”.
